In data set [1] the target is T1, GPIIb/IIIa receptor (Homo sapiens, UniProt P05106+P08514).
T1 construct: GP IIb/IIIa receptor proteins, which are found on the cell surface of platelets; endogenous in cells; host or cells: platelets in citrated whole blood of donors
In words: Fibrinogen-coated bead agglutination whole blood assay with activating peptide. Type of data set: cell-based. Set-up: key to agglutination assay result: the assay remained positive (i.e., 1-4+); The assay became negative (i.e., O+). As to conditions: for agglutination assay result: 2 μM activating peptide. As to the method: Blood (9 volumes) is drawn from a patient by syringe and placed into standard blue-top tube containing sodium citrate (1 volume of 3.8% sodium citrate). Alternatively, blood may be drawn by Vacutainer directly into a blue-top tube. The tube is then inverted to mix the anticoagulant with the whole blood. Then 70 μl of this mixture is added to an assay tube containing 100 μl of buffer (0.15M NaCl, 0.5 mM CaCl2, 0.01M HEPES, pH 7.4), 10 μl of well-mixed fibrinogen coated beads prepared by the method of Example 1, and 5-10 µl of isoSer-Phe-Leu-Leu-Arg-Asn (SEQ ID NO:3).
The assay tube is then placed on a rocker and rocked at 20 cpm at room temperature for two minutes. The tube is removed from the rocker, held vertically to allow the blood to drain and viewed. If less than 80% of GPIIb/IIIa receptor blockade has been achieved in the patient's blood, agglutinated beads are readily seen in the streak marking where the blood tilted back and forth.
(§1) Purified peak I-2 fibrinogen is coupled to 3 μm, blue carboxylated beads (obtained from Polysciences, Inc.) using a water soluble carbodiimide (EDC) by the method of Example 1. The assay is conducted by adding to a 12×75 mm glass test tube: 100 μl of buffer, 20 μl of beads (2.5% slurry), and 5 μl of isoSer-Phe-Leu-Leu-Arg-Asn. Blood is collected into citrate anticoagulant and 70 μl of the whole blood is added to the test tube, which is then capped, placed on a rocking platform, and rocked at 16 cycles/min. When normal blood was tested using 1 or 2 μM activating peptide, a 4+ agglutination endpoint was easily observed in all donors (n=10) by 2 min. […] Using 2 μM activating peptide, the assay remained positive (i.e., 1-4+) at c7E3 Fab concentrations of 0.8 (n=1), 1.2 (n=1), 1.5 (n=3), and 1.8 (n=2) μg/ml, corresponding to GPIIb/IIIa receptor blockade of 56%; 77%; 68, 68, and 82%; and 66 and 73%. The assay became negative (i.e., O+) at c7E3 Fab concentrations of 1.2 (n=1), 1.5 (n=1), 1.8 (n=3) and 2.4 (n=2) μg/ml, corresponding to GPIIb/IIIa receptor blockade of 77%; 92%; 83, 88 and 94%; and 88 and 89%. […] The percentage of receptor blockade was assayed by radiolabeled 7E3 binding as reported in Coller et al., N.Y. Acad. Sci., 614:193 (1993).

Data set [2] relates to aminopeptidase M. The following applies: in the presence of aminopeptidase M; cited from earlier work.
Data set [3] relates to aminopeptidase M. As to conditions: incubated in plasma; cited from earlier work.
The next data set relates to thrombin receptor. The following applies: cited from earlier work.
Data set [4] has as its target T1, GPIIb/IIIa receptor. In words: GPIIb/IIIa receptor blockade assayed by radiolabeled 7E3 binding. As to the method:
as §1

For data set [5], the target named is T1, GPIIb/IIIa receptor. As to conditions: cited from earlier work.
The mark [6] stands for this setting: blood pretreated with c7E3 Fab at 5 doses between 0.8-3.0 μg/ml for about 10 minutes at 22° C.

This is an account of results in patent publication US5854005A, “Platelet blockade assay” (Mount Sinai School of Medicine, priority 1996, dated 1998).

“And” between values parts separate entries of the source, which are not always exact repeats. Equal entries are not always repeated.

For the compound `CC(=O)Oc1ccccc1C(=O)O` [Aspirin, reference compound], the “effect on the agglutination assay results” value at GPIIb/IIIa receptor [1] (Aspirin 1 mM) is “did not appreciably affect the results”.
As to `CC(C)C[C@@H](N)[C@H](O)C(=O)N[C@H](C(=O)N[C@H](C(=O)N[C@@H](CC(=O)O)C(=O)O)C(C)C)C(C)C` [amastatin], in the data set on aminopeptidase M [2], the “effect on platelet aggregation” value is “enhance platelet aggregation”.
For the compound “T-11: eleven amino acid peptide lacking the three C-terminal amino acids of T-14 (SFLLRNPNDKY)”, the “ability to induce aggregation after incubation in plasma” value with aminopeptidase M [3] was “lose their ability to induce aggregation”. In the data set with thrombin receptor, the “platelet activation activity relative to T-6” value was ~ 20% and the “potency relative to T-14” value is recorded as “twice as potent as T-14”.
“T-14: fourteen amino acid peptide corresponding to the new N-terminus of the cleaved thrombin receptor protein (SFLLRNPNDKYEPF)”: the “ability to induce aggregation after incubation in plasma” value in the data set on aminopeptidase M [3] is given as “lose their ability to induce aggregation”. Further, the platelet aggregating activity entry in the data set on thrombin receptor is “capable of aggregating platelets directly”.
In the case of “c7E3 Fab: GPIIb/IIIa receptor blocking agent, monoclonal antibody c7E3 Fab”, in the data set with GPIIb/IIIa receptor [4] (setting [6]), the “GPIIb/IIIa receptor blockade (trend)” value was “increasing GPIIb/IIIa receptor blockade”. The GPIIb/IIIa receptor blockade was 56% in the data set with GPIIb/IIIa receptor [4] (c7E3 Fab 0.8 μg/ml, samples with positive agglutination assay); 77% with GPIIb/IIIa receptor [4] (c7E3 Fab 1.2 μg/ml, samples with negative agglutination assay); 77% with GPIIb/IIIa receptor [4] (c7E3 Fab 1.2 μg/ml, samples with positive agglutination assay); 92% with GPIIb/IIIa receptor [4] (c7E3 Fab 1.5 μg/ml, samples with negative agglutination assay); 68% and 82% in the data set with GPIIb/IIIa receptor [4] (c7E3 Fab 1.5 μg/ml, samples with positive agglutination assay); 83% and 88% and 94% with GPIIb/IIIa receptor [4] (c7E3 Fab 1.8 μg/ml, samples with negative agglutination assay). Further, the GPIIb/IIIa receptor blockade is 66% and 73% in the data set with GPIIb/IIIa receptor [4] (c7E3 Fab 1.8 μg/ml, samples with positive agglutination assay); 88% and 89% with GPIIb/IIIa receptor [4] (c7E3 Fab 2.4 μg/ml, samples with negative agglutination assay). Further, the bleeding times result in the data set with GPIIb/IIIa receptor [5] (blockade of about 80% or more of GPIIb/IIIa receptors, often to times greater than thirty minutes) is reported as “prolongs the bleeding times”. The platelet aggregation result with GPIIb/IIIa receptor [5] (blockade of about 80% or more of an individual's GPIIb/IIIa receptors) is on record as “abolishes platelet aggregation”. Besides, the antithrombotic effect entry in the data set with GPIIb/IIIa receptor [5] (patient with a platelet count greater than 900,000/μl, standard dose) was “virtually no antithrombotic effect”. The agglutination assay result is listed as “positive” with GPIIb/IIIa receptor [1] (c7E3 Fab 0.8 μg/ml) and “negative” with GPIIb/IIIa receptor [1] (c7E3 Fab 2.4 μg/ml). Further, the agglutination of beads result with GPIIb/IIIa receptor [1] (setting [6]) is “elimination of agglutination”.
For heparin [reference compound], the “effect on the agglutination assay results” value on GPIIb/IIIa receptor [1] (heparin 3.5 U/ml) is listed as “did not appreciably affect the results”.
